Test results as given in the RNAGym collection of RNA variant scans (doi:10.1073/pnas.2313332121).

B1: TPR t1 (parent)
chain: GACCAAUCUGCCCUCAGAGCUCGAGAACAUCUUCGGAUGCAGAGGAGGCAGGCUUCGGUGGCGCGAUAGCGCCAACGUCCUCAACCUCCAAUGCAUCCCACCACAUGAUGAUGCCUGAAGAGCCUUGGUUUUUUG

Variants of: B1
Experiment: polymerase ribozyme fitness, log enrichment relative to wild type (log ratio); higher = more active; in vitro selection for triplet polymerase activity
In short: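 Input and output libraries were sequenced on Illumina after a single in vitro selection round, run in triplicate on PCR-built, transcribed mutant libraries of each subunit of a heterodimeric triplet polymerase ribozyme. Selection annealed libraries to a biotinylated primer, the partner subunit and triplets, incubated them frozen at −7 °C, then gel-excised extended constructs for streptavidin-bead capture and RT-PCR. Genotypes with ≥10 input reads and ≥1 read per output were kept. Fitness is the logarithm, taken in base 2, of genotype enrichment divided by wild-type enrichment, using inverse-variance-weighted replicate averages.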

Row | Variant | polymerase ribozyme fitness (log ratio)
1 | C3A C85A | -3.94
2 | A6G G71A | -0.397
3 | U78G A84U C115U A121C | -3.92
4 | A18C U32C A37U A50U G60A G113A | -5.4
5 | A18C A118U | -0.81
6 | G48C C73G G93A C124A | -1.39
7 | G10U C62U | -0.108
8 | A18C G113U | -4.82
9 | C89A A111U G122A | -4.54
10 | G44U G60C A91U A121G | -0.902
11 | G44C G61A A84C | -0.524
12 | C115U A118U U130G | -1.69
13 | C49A G69U U81A C89A G93U C115G C123G | -2.93
14 | C40G G71U C79A | -2.32
15 | C53U C102U C114A | -4.76
16 | G48C C79A | -3.15
17 | G60U G61C | -1.45
18 | U14A C70U C104U | -2.52
19 | A2C C4A A108G | -3.25
20 | C62A C72U | -1.74
21 | C88U G117A | -1.32
22 | U54G C82A | -0.235
23 | G45U C56A C73G | -2.79
24 | G10A U109A U133G | -7.59

Row | Variant | polymerase ribozyme fitness (log ratio)
25 | C11A C85U G120U | 0.755
26 | A6U G19A G44A C53A G57A A100U C124U | -4.72
27 | A2C G71A U112G | -2.44
28 | A18U G44U G110A | -5.32
29 | C72A C85U C102U A121G U133A | 0.201
30 | A111U C124U | -3.09
31 | G47U G57A | -1.73
32 | C20G G107A C114U G122A | -6.03
33 | C49U U106A U116C | -1.79
34 | C49A G71U | -0.754
35 | G45A C53G | -0.662
36 | A2C C4A G44A C49U G63A | -3.51
37 | G57C C62A G122A | -3.31
38 | G35U C115A G120C | -5.77
39 | G122A C123A | -0.665
40 | U59C G120A G135U | -0.46
41 | A83G C89A | -3.89
42 | A43U G44U A74U U87A | -5
43 | C13G C88A U130G | -3.24
44 | A103C C104U U116C | -6.48
45 | C22G C53G G63C G113U | -5.64
46 | G107A G120C | -3.25
47 | G71A U106A U133A | -1.42
48 | G10A C13U G61U | -0.325

Row | Variant | polymerase ribozyme fitness (log ratio)
49 | A43G C82G U87C G93U | -6.73
50 | U78C G117A | -1.35
51 | G69U | 0.48
52 | G35U G63U | -6.36
53 | G45C G61C U131G | -1.96
54 | C3U C56G G58U G113U | -4.35
55 | A50G U87G | 0.406
56 | U14G G71A G120C | -0.108
57 | U33A G69U | -0.74
58 | C49U C62G | -4.14
59 | C13A A46U | -3.23
60 | A2U C72G | -1.72
61 | C11U G63U | -1.27
62 | G47A C101U G122A | -1.99
63 | G19A C49G G63C G93C A105C G107C G117C | -6.07
64 | C11U G45A G51A C76G A91C C114G | -5.71
65 | C72G U87A | -2.08
66 | G113C G120C | -2.85
67 | C13U G35U | -3.47
68 | A41U G48U C76A | -1.72
69 | C79G C89U U112A | -2.07
70 | C8G C20G C40G U96C U112A | -6.13
71 | G35A C62A | -5.05
72 | G25C C70A | -7.32

Row | Variant | polymerase ribozyme fitness (log ratio)
73 | G61A A100C | -0.823
74 | A6U G10U C53U G122C C123A U125A | -0.333
75 | C3G U96A | -3.4
76 | C40A C102A G113U C124A | -6.46
77 | A29U U112G U133C | -1.1
78 | A41G | -0.0621
79 | G69U C94U C101A | -0.271
80 | A43C G61U C123G | -1.3
81 | C12U C85G | -0.35
82 | A50U G69A | -3.65
83 | C8G G35C U131A | -5.09
84 | A2G C72U C88U C124A | 1.45
85 | C11G C15U G45A C73A A83U | -1.42
86 | A2U C40G C53G C72G | -2.9
87 | A5U C13A C15G C56A A121U | -1.44
88 | U78C C88G | -0.636
89 | C20U C76A | -2.08
90 | C22G G51A U81A C115U U130A | -5.32
91 | U78C U112A | 1.12
92 | C53A G60A C72U A100U G120C C123G | -0.938
93 | A6C C101A | -1.63
94 | C11G C15U C56U A83U | -1.12
95 | C79U C124A | 1.12
96 | U9C G19C C70U | -3.22

Row | Variant | polymerase ribozyme fitness (log ratio)
97 | A6C G71C C79U | -0.784
98 | C20A U32G G44A C73A C114G U132A | -5.73
99 | C64U C85U | -1.42
100 | G47U G71A U87A | -4.27
101 | U7G C12A A43U C73A | -1.44
102 | A5C G63A U81A | -2.31
103 | A6G G45C G63C U81C | -1.8
104 | C49U G52U C56U G77U C101A | -2.69
105 | G61U C124A | 1.54
106 | G51U G113U | -6.05
107 | C11U G17A G57C C89U G120C | -1.86
108 | G69U C79G | -1.63
109 | C114G G122U | -2.87
110 | U87C C124U | 0.583
111 | C40A C79G G93C G110A U133A | -5.44
112 | U14A C85A C89G C123U | -3.2
113 | U9A G71A C73A C85A U116A | -3.81
114 | C8U G52U C86A | -1.28
115 | G44C C101A | -1.76
116 | A26U C56G | -3.48
117 | C13G C124A | 1.06
118 | A6U G10U C15G C28A A100C C123U | -5.42
119 | A6G G39A C86U G117A | -0.696
120 | C22U C34U A83C C124G | -5.96

Row | Variant | polymerase ribozyme fitness (log ratio)
121 | U7A C15A A41C C70U | -2.92
122 | G51A A66U C104G A105U A121G | -7.62
123 | A5U C22A | -3.71
124 | G23C C70A G113U G117C | -6.09
125 | U96G G117U | -2.13
126 | G45C A46C A105C | -5.01
127 | A6U U30C G60A G122A | -5.6
128 | C62A C82G G117A | -3.75
129 | A100C | -0.919
130 | A24G G51U G69A G113C G120U | -6.67
131 | C11U C94A C102A | -3.51
132 | U33G A111U A121G U125A | -6.73
133 | G42A G45C G69U C123U | -0.482
134 | G63A C102A | -3.54
135 | G63C C114U | -2.19
136 | C56U C104U | 0.166
137 | C22G G63A | -4.12
138 | U92A C123A | -3.22
139 | C8A A16G A43C | -1.35
140 | C8G C49A U96G | 0.183
141 | C4A A46C | -3.07
142 | A37U C89A A95U C123A | -3
143 | C8G G61A | 0.403
144 | G36C G61C | -2.42

Row | Variant | polymerase ribozyme fitness (log ratio)
145 | G39U C70G | -4.12
146 | G63C G110U | -2.57
147 | U9A C73G | -0.255
148 | C11G C99U | -2.71
149 | G23C C53U U92G C123U | -8.04
150 | C4U G48U G52U A90U C124G | -1.92
151 | U30C C88U | -2.37
152 | C11G C114A | -1.06
153 | A100C U112G U116A | -4.36
154 | G47C G58A | -1.77
155 | U9G C15A C70G A111U G117C | -5.91
156 | C70U G120C U132C | 0.806
157 | G10A G47U C56U C82A A83G | -2.51
158 | U7C U21G G45C G71U | -2.5
159 | G48U U109C | -4.94
160 | G17A A41U A84C | -4.63
161 | C12U C123U | 1.71
162 | C22U U55G C72A C79A C123A | -6.59
163 | G42U A95G | -0.388
164 | U7G G52U C64U C123G | 1.52
165 | A5G C89G | -1.15
166 | C13U C70A A84U | -1.83
167 | C20G G63A | -6.16
